Changes are numbered by the printed parent chain. Like-named read-outs stand apart in the source and are kept apart here. Blank lines part the entries; values can stand above or below the binder they belong to.
Legend:
[1] = target: T1, monkey TIGIT (ECD)-hFc (monkey (cynomolgus)); assay: ELISA, coated monkey TIGIT (ECD)-hFc (table head says FACS)
T1 construct: bought protein; also called cynoTIGIT(ECD)-hFc; cynomolgus TIGIT (ECD)-hFc; not shown: human Fc (hFc) of the bought protein

[2] = target: T1, monkey TIGIT (ECD)-hFc; assay: SPR (BIAcore 8K), monkey TIGIT (ECD)-hFc on CM5 chip, antibody injected
[3] = target: T2, human TIGIT expressed on HEK293A cells (human, UniProt Q495A1 22-244); assay: FACS on HEK293A/human TIGIT cells
T2 construct: also called HEK293A/human TIGIT cells
T2 sequence: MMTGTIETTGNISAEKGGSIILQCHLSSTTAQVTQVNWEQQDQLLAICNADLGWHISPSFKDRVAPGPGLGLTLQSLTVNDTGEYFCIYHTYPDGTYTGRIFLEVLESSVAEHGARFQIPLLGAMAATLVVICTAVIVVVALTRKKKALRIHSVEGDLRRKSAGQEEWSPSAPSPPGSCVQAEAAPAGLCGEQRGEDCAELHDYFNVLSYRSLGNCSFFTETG
Method: (§1) After incubated at 4° C. for 1 h, plates were washed 3 times with PBST. Then, APC coupled Goat Anti-Mouse IgG (Cat #: 405308, BioLegend, US) diluted 500x was added to the plates. After incubation at 4° C. for 1 h, the plates were washed with PBS for 3 times and then cell fluorescence was monitored using a FACS machine (BD).

[4] = target: T3, monkey TIGIT expressed on HEK293A cells (monkey); assay: FACS on HEK293A/monkey TIGIT cells
T3 construct: also called HEK293A/monkey TIGIT cells
Method: as §1

[5] = target: T2, human TIGIT expressed on HEK293A cells; assay: FACS, HEK293A/human TIGIT cells, serially diluted antibody (protocol of Example 5) [A]
Method: as §1

[6] = target: T2, human TIGIT expressed on HEK293A cells; assay: cell-based or functional assay
[7] = target: T3, monkey TIGIT expressed on HEK293A cells; assay: FACS, HEK293A/monkey TIGIT cells, serially diluted antibody (protocol of Example 5) [B]
Method: as §1

[8] = target: T4, TIGIT (ECD)-hFc (human, UniProt Q495A1 22-141); assay: FACS blocking assay (protocol of Example 7): serially diluted antibody pre-incubated with TIGIT (ECD)-hFc, then binding of TIGIT (ECD)-hFc to A549/human PVR cells measured; blocked ligand: human PVR
T4 construct: bought protein; also called recombinant human TIGIT (ECD)-hFc; Cat #: 10917-H02H, Sino Biological; not shown: human Fc (hFc) of the bought protein
T4 sequence: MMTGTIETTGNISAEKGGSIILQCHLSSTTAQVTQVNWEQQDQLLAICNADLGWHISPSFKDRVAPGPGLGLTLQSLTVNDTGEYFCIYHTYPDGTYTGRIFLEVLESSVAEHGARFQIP
Method: (§2) After incubated at 4° C. for 1 h, plates were washed 3 times with PBST and then added with PE coupled Goat Anti-human IgG (Cat #: PAI-86078, Thermofisher, US) diluted 500×. After incubation at 4° C. for 1 h, the plates were washed with PBST for 3 times and then cell fluorescence was monitored using a FACS machine (BD).

[9] = target: T2, human TIGIT expressed on HEK293A cells; assay: FACS, HEK293A/human TIGIT cells, serially diluted antibody (protocol of Example 5) [A]; remark: listed apart in the source
[10] = target: T5, human TIGIT (ECD)-his (human, UniProt Q495A1 22-141); assay: ELISA, coated human TIGIT (ECD)-his (table head says FACS)
T5 construct: bought protein; also called hTIGIT(ECD)-his; Cat #: 10917-H08H, Sino Biological; not shown: his tag of the bought protein
T5 sequence: T4 sequence
Method: Plates were washed for 3 times with PBST (PBS+0.05% Tween20), added with Goat-anti-mouse IgG-HRP (Cat #: A9309-1 ml, Sigma, US) diluted 5000×, and incubated for 1 h at room temperature. Plates were incubated with freshly prepared Ultra-TMB (Cat #: 555214, BD, US) for 5 minutes at room temperature for color development.

[11] = target: T4, TIGIT (ECD)-hFc; assay: FACS blocking assay: antibody preincubated with TIGIT (ECD)-hFc, binding to A549/human PVR cells
Method: as §2

[12] = target: T4, TIGIT (ECD)-hFc; assay: FACS blocking assay (protocol of Example 7): serially diluted antibody pre-incubated with TIGIT (ECD)-hFc, then binding of TIGIT (ECD)-hFc to A549/human PVR cells measured; blocked ligand: human PVR [B]
[13] = target: T5, human TIGIT (ECD)-his; assay: SPR (BIAcore 8K), human TIGIT (ECD)-his on CM5 chip, antibody injected
Method: They were also tested in SPR assays for their binding affinities to human and monkey TIGITs using the BIAcore™ 8K instrument (GE Life Sciences, US). […] The binding affinities were calculated with the RUs of blank controls subtracted. The association rate (kₐ) and dissociation rate (kd) were calculated using the one-to-one Langmuir binding model (BIA Evaluation Software, GE Life Sciences, US). The equilibrium dissociation constant KD was calculated as the kd/kₐ ratio.

T3 sequence (chain, as listed by the source limits assumed): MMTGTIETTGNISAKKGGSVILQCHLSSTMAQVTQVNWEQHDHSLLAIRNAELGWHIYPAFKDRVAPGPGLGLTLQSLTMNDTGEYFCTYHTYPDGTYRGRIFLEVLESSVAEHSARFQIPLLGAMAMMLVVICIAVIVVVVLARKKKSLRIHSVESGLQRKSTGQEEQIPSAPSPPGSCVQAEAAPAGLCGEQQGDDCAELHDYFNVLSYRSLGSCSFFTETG

B6: 149G11-VH3VL2 (antibody, human IgG1, kappa, V domains shown)
VH: QVQLVQSGAEVKKPGASVKVSCKASGYTFTNYWIHWVKQAPGQGLEWIGDIYPGGRYSNYNEKFRGRVTLTADTSTSTVYMELSSLTSEDTAVYYCARYYESAMDFWGQGTTVTVSS
VL: DIVMTQSPDSLAVSLGERATINCKSSQNLLYNSNQKSYLAWFQQKPGQPPKLLIYWASTRESGVPDRFSGSGSGTDFTLTISSLQAEDLAVYYCQQYYNYPFTFGAGTKLELKR
notes: humanized, human IgG1/kappa
IC50 (read off the curve) [12]: ~2 µg/mL | EC50 (read off the curve) [9]: ~0.2 µg/mL | NK92-mediated ADCC against HEK293A/human TIGIT cells, EC50 [6]: 0.013 nM

B7: 149G11-VH3VL3 (antibody, human IgG1, kappa, V domains shown)
VH: B6 VH
VL: B6 VL with I21V, P49S
notes: humanized, human IgG1/kappa
IC50 (read off the curve) [12]: ~2 µg/mL | EC50 (read off the curve) [9]: ~0.2 µg/mL | NK92-mediated ADCC against HEK293A/human TIGIT cells, EC50 [6]: 0.014 nM

B8: 149G11-VH4VL3 (antibody, human IgG1, kappa, V domains shown)
VH: B6 VH with A40R, Q43H
VL: B6 VL with I21V, P49S
notes: humanized, human IgG1/kappa
IC50 (read off the curve) [12]: ~2 µg/mL | Kd [13]: 0.0022 nM | EC50 (read off the curve) [9]: ~0.2 µg/mL | NK92-mediated ADCC against HEK293A/human TIGIT cells, EC50 [6]: 0.0177 nM

B9: 149G11-VH4VL2 (antibody, human IgG1, kappa, V domains shown)
VH: B6 VH with A40R, Q43H
VL: B6 VL
notes: humanized, human IgG1/kappa
IC50 (read off the curve) [12]: ~2 µg/mL | Kd [13]: 0.00309 nM | EC50 (read off the curve) [9]: ~0.2 µg/mL | NK92-mediated ADCC against HEK293A/human TIGIT cells, EC50 [6]: 0.0184 nM

B10: 149G11-VH2VL3 (antibody, human IgG1, kappa, V domains shown)
VH: B6 VH with K38R
VL: B6 VL with I21V, P49S
notes: humanized, human IgG1/kappa; also called 149G11H2L3
IC50 (read off the curve) [12]: ~2 µg/mL | Kd [13]: 0.00329 nM | EC50 (read off the curve) [9]: ~0.2 µg/mL | NK92-mediated ADCC against HEK293A/human TIGIT cells, EC50 [6]: 0.00795 nM

Further lines, results first:

EC50 [1]: 0.14 nM | Kd [2]: 0.0622 nM | EC50 [3]: 0.44 nM | EC50 [4]: 0.9 nM | EC50 (read off the curve) [5]: ~0.2 µg/mL | NK92-mediated ADCC against HEK293A/human TIGIT cells, EC50 [6]: 0.0465 nM | EC50 (read off the curve) [7]: ~0.2 µg/mL
B1: Tiragolumab (antibody, V domains shown)
VH: EVQLQQSGPGLVKPSQTLSLTCAISGDSVSSNSAAWNWIRQSPSRGLEWLGKTYYRFKWYSDYAVSVKGRITINPDTSKNQFSLQLNSVTPEDTAVFYCTRESTTYDLLAGPFDYWGQGTLVTVSS
VL: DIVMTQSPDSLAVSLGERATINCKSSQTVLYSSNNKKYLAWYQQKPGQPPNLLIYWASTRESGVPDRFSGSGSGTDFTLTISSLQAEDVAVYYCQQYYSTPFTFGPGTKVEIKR

IC50 (read off the curve) [8]: ~3 µg/mL | EC50 (read off the curve) [9]: ~0.2 µg/mL | EC50 (read off the curve) [5]: ~0.2 µg/mL | EC50 (read off the curve) [7]: ~0.5 µg/mL
B2: chimeric 149G11 (antibody, human IgG1, kappa, V domains shown)
VH: QVQLQQSGTELVRPGTSVKMSCRTAGYTFTNYWIHWVKQRPGHGLEWIGDIYPGGRYSNYNEKFRGKATLTADTSSSTAYMELSSLTSEDSAIYYCARYYESAMDFWGQGTSVTVSS
VL: DIVMSQSPSSLAVSVGEKVTVNCKSSQNLLYNSNQKSYLAWFQQKPGQSPKLLIYWASTRESGVPDRFTGSGSGTDFTLTISSVKAEDLAVYYCQQYYNYPFTFGSGTKLEIKR
notes: mouse variable regions with human IgG1/kappa constant regions; also called chimeric antibody 149G11

EC50 [10]: 0.86 nM | EC50 [11]: 41 nM | EC50 [3]: 0.1 nM | EC50 [4]: 1.2 nM
B3: mouse 149G11 (antibody, V domains shown)
VH: B2 VH
VL: DIVMSQSPSSLAVSVGEKVTVNCKSSQNLLYNSNQKSYLAWFQQKPGQSPKLLIYWASTRESGVPDRFTGSGSGTDFTLTISSVKAEDLAVYYCQQYYNYPFTFGSGTKLEIK
notes: also called antibody from clone 149G11

IC50 (read off the curve) [8]: ~3 µg/mL | EC50 (read off the curve) [5]: ~0.2 µg/mL | EC50 (read off the curve) [7]: ~0.2 µg/mL
B4: chimeric 70E11 (antibody, human IgG1, kappa, V domains shown)
VH: QVQLQQPGTDLVKPGASVRMSCKASGYTFTSYNVHWVKQTPGQGLEWIGTIYPGNLATSYNQKFKGKATLTADKSSTTAYMQLSSLTSEDSAVYYCARSGTMDYWGQGTTLTVSS
VL: ENVVTQSPAIMSASPGEKVTMTCRASSSISSTYLHWYQQKSGASPKLWIYNTQNLASGVPARISGSGSGTSYSLTISSVEAEDAATYYCQQFGGYPLITFGAGTKLELKR
notes: mouse variable regions with human IgG1/kappa constant regions; also called chimeric antibody 70E11

EC50 [10]: 0.82 nM | EC50 [11]: 43 nM | EC50 [3]: 0.56 nM | EC50 [4]: 0.39 nM
B5: mouse 70E11 (antibody, V domains shown)
VH: B4 VH
VL: ENVVTQSPAIMSASPGEKVTMTCRASSSISSTYLHWYQQKSGASPKLWIYNTQNLASGVPARISGSGSGTSYSLTISSVEAEDAATYYCQQFGGYPLITFGAGTKLELK
notes: also called antibody from clone 70E11
